pKd: −log10 of the molar value.
Legend:
[1] = target: FZD5-FZD6 chimeric protein (human); test: FRET or BRET; NanoBiT/BRET saturation binding on live HEK293A cells (setup 1): eGFP-WNT-3A conditioned medium 16.7 pM to 16.7 nM, 5% FBS, 10 mM HEPES, 240 min at 37 °C, then LgBiT and furimazine for 10 min; one-site specific model (normalised logarithmic fits for pKd)
[2] = target: FZD5-FZD7 chimeric protein (human); test: as above

Sequence of eGFP-tagged mouse WNT-3A (P27467 19-352): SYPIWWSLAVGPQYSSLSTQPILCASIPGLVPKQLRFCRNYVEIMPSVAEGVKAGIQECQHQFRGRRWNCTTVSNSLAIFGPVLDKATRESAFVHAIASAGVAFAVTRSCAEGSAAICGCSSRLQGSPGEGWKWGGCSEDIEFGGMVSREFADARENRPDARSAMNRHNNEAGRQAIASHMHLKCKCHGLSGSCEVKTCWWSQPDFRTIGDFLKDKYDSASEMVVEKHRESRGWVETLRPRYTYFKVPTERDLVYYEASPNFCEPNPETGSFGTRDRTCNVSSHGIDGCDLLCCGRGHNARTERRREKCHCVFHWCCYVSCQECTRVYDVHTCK

Question: With “eGFP-tagged mouse WNT-3A (from UniProt P27467 19-352) (ligand)” as the substance, how does the pKd [1] read?
Answer: 8.36

Question: And the pKd [2]?
Answer: 8.30

— PMC8205236
